# Assay results taken from patent US11680267B2, “Co-regulatory sequences based on tetracycline and Cumate” (Shenzhen Eureka Biotechnology Co., Ltd., priority 2020, dated 2023).
# Experiments:
# Assay type in all cases: cell-based
# 293T-rtTA3G-CymR cells [1] = assay: Luciferase fluorescence intensity assay, transient transfection, both DOX and Cumate vs DOX alone (Example 2); conditions: for induced expression level: transient transfection, 24 hours after transfection
# Source text: The experiment described in the present Example is to study and verify the effect of the position and copy number of the CuO operator in the Tet-On and Cumate complex response element on the induced expression level and non-induced leaky expression level of the complex response element, and to optimize and confirm the optimal position and copy number of the CuO operator. In the present Example, based on the 7×TetO sequence in the TRE3G response element and the minimal promoter sequence #1 (SEQ ID NO: 25), the response elements TRE3GCuO14 (10-317 bp in SEQ ID NO: 8), TRE3GCuO30 (SEQ ID NO: 28), TRE3GCuO50 (SEQ ID NO: 23) and TRE3GCuO100 (10-403 bp in SEQ ID NO: 10) were designed by linking a CuO operator sequence at 10 bp to 100 bp downstream of the TATA box (at 14 bp, 30 bp, 50 bp and 100 bp downstream of the TATA box, respectively), and a Luciferase reporter gene sequence was linked downstream of the 3′ end of the above response elements, to construct plasmids 18BF251, 18BF252, 18BF235 and 18BF253. Further, in order to study the effect of multiple copies of CuO operators, 2, 4 and 6 copies of CuO operator sequences were respectively inserted at 50 bp downstream of the TATA box, to design the response elements TRE3GCuO2x (10-411 bp in SEQ ID NO: 11), TRE3GCuO4x (10-527 bp in SEQ ID NO: 12) and TRE3GCuO6x (10-643 bp in SEQ ID NO: 13), and then a Luciferase reporter gene sequence was linked downstream of 3′ end of the above response elements to construct plasmids 18BF254, 18BF255 and 18BF256. In 293T-rtTA3G-CymR cells stably expressing rtTA3G and CymR genes, the above plasmids were transiently transfected, and the optimal position and number of CuO operator were validated by measuring the luciferase […] value of samples added with both DOX and Cumate inducers and that of the control added with the DOX inducer only. The specific experimental methods were as follows:
# (§1) 293T cells were seeded at 1.5E+06 cells per 60 mm culture dish, and cultured in DMEM (Sigam, D6429) complete medium supplemented with 10% FBS (ExCell, 11H116) at 37° C. and 5% CO 2. After 24 hours of culture, transfection was carried out according to the PEI method. During transfection, 500 μL of transfection reagent which contained 5.5 ug of total plasmid was added to each 60 mm culture dish, and the mass ratio of total plasmid to PEI MAX (Polysciences, 24765-1) was 1:4. The transfection was carried out according to the PEI method, wherein the amount of total plasmid was 5.5 μg. The transfection was performed with plasmids 19BF074:18BF019 at a molar ratio of 10:1 to obtain 293T-rtTAadv-CymR cells; and the transfection was performed with plasmids 19BF075:18BF019 at a molar ratio of 10:1 to obtain 293T-rtTA3G-CymR cells. The plasmid and PEI MAX were mixed uniformly, and then put into a culture dish after standing for 15 minutes. 3 hours after transfection, the medium was changed to a complete DMEM medium, and the transfection operation was completed. After 24 hours of transfection, the cells were digested with trypsin and all seeded in a 100 mm culture dish (Corning, 430167), and 200 μg/ml of hygromycin (Sangon Biotech A600230-0001) drug screening was performed for at least three passages. After the growth of cells under the pressure of drug screening was consistent with that of the original 293T cells, the following experiments were performed.
# The 293T-rtTA3G-CymR cells were seeded in a 96-well plate (Corning 3916) at 2.5E+04 cells per well, and the medium was 100 microliters of DMEM complete medium. […]
# 293T-rtTAadv-CymR cells = assay: Luciferase assay, transient transfection, DOX and Cumate vs no inducer (Example 3), rtTAadv cells
# Procedure: as §1
# (§2) In Tet-On inducible expression system, the induced transcription activity and the leaky transcription activity were comprehensively affected by the TetO operator linking sequence of the TRE response element and the minimal promoter sequence, as well as different mutants of the transactivator rtTA. In addition, the transport and stability of messenger ribonucleic acid may be enhanced by linking a spliceable intron sequence downstream of the 3′ end of the response element and upstream of the 5′ end of the regulated nucleic acid fragment of interest, but the induced transcription activity and leaky transcription activity of response element of the inducible expression system may also be affected. Based on this, the optimal design scheme of complex response element was determined in this Example based on the induced expression level and the ratio of induced/leaky expression level of Luciferase gene under the combination of the following conditions: (1) Tet-On and Cumate complex response elements TREadvCuO and TRE3GCuO designed based on the TREadv and TRE3G response element sequences; (2) whether an intron was linked; (3) being regulated by the transactivator rtTAadv or rtTA3G. A total of 8 design schemes were compared in this Example: TREadv (18BF232), TREadvCuO (18BF233), TRE3G (18BF234), TRE3GCuO (18BF235), TREadv-BGI (18BF240, wherein the response element was TREadv, and a human β-globulin intron was linked between the 3′ end of the response element and the 5′ end of the Luciferase gene), TREadvCuO-BGI (18BF241, wherein the response element was TREadvCuO, and a human β-globulin intron was linked between the 3′ end of the response element and the 5′ end of the Luciferase gene), TRE3G-BGI (18BF236, wherein the response element was TRE3G, and a human β-globulin intron was linked between the 3′ end of the response element and the 5′ end of the Luciferase gene) and TRE3GCuO-BGI (18BF237, wherein the response element was TRE3GCuO, and a human β-globulin intron was linked between the 3′ end of the response element and the 5′ end of the Luciferase gene). The promoter CMV-BGI (18BF229, wherein the promoter was CMV, and a human β-globulin intron was linked between the 3′ end of the CMV promoter and the 5′ end of the Luciferase gene) was used as a positive control. […]
# 293T-rtTA3G-CymR cells [2] = assay: Luciferase assay, transient transfection, DOX and Cumate vs no inducer (Example 3), rtTA3G cells; conditions: 293T-rtTA3G-CymR cells
# Procedure: as §1, §2
# 293T-rtTA3G-CymR cells [3] = assay: Luciferase fluorescence intensity assay, transient transfection, both DOX and Cumate vs DOX alone (Example 2); conditions: for induced expression level as % of the induced expression level for TREadv response element: 1 ug/ml DOX and 200 ug/ml Cumate; for ratio of induced/leaky expression level based on Cumate inducible expression system, relative to that for the TREadv response element: DOX and Cumate vs DOX only
# [4] = 1 ug/ml DOX and 200 ug/ml Cumate
Molecule,induced expression level as % of the induced expression level of TRE3G response element (293T-rtTA3G-CymR cells [1]; [4]) [%],"ratio of induced/leaky expression level based on Cumate inducible expression system, relative to that of TRE3G response element (293T-rtTA3G-CymR cells [1]; DOX and Cumate vs DOX only) [times]",induced expression level (293T-rtTA3G-CymR cells [1]; [4]),induced expression level as % of that of the corresponding TRE3G or TREadv single regulatory response element (293T-rtTAadv-CymR cells; DOX and Cumate) [%],induced/leaky expression ratio (293T-rtTAadv-CymR cells; DOX and Cumate vs no inducer) [times],induced expression level as % of that of the single regulatory response element (293T-rtTA3G-CymR cells [2]; DOX and Cumate) [%],induced/leaky expression ratio (293T-rtTA3G-CymR cells [2]; DOX and Cumate vs no inducer) [times],induced expression level as % of the induced expression level for TREadv response element (293T-rtTA3G-CymR cells [3]) [%],"ratio of induced/leaky expression level based on Cumate inducible expression system, relative to that for the TREadv response element (293T-rtTA3G-CymR cells [3]) [times]"
"TRE3GCuO30: Tet-On (TRE3G) and Cumate complex response element, CuO 30 bp behind the TATA box (SEQ ID NO: 28) (nucleic acid, TRE3GCuO30 response element sequence) DNA: TCCCTATCAGTGATAGAGAACGTATGAAGAGTTTACTCCCTATCAGTGATAGAGAACGTATGCAGACTTTACTCCCTATCAGTGATAGAGAACGTATAAGGAGTTTACTCCCTATCAGTGATAGAGAACGTATGACCAGTTTACTCCCTATCAGTGATAGAGAACGTATCTACAGTTTACTCCCTATCAGTGATAGAGAACGTATATCCAGTTTACTCCCTATCAGTGATAGAGAACGTATTAGGCGTGTACGGTGGGCGCCTATAAAAGCAGAGCTCGTTTAGTGAACCGTCAGATACAAACAGACCAGATTGTCTGTTTGTT",44.5,4.21,3.06E+06 RLU,,,,,,
"TREadvCuO: Tet-On (7xTetO of TREadv) and Cumate complex response element, CuO 52 bp behind the TATA box (SEQ ID NO: 30) (nucleic acid, TREadvCuO52 response element sequence) DNA: TCCCTATCAGTGATAGAGAACGTATGTCGAGTTTACTCCCTATCAGTGATAGAGAACGATGTCGAGTTTACTCCCTATCAGTGATAGAGAACGTATGTCGAGTTTACTCCCTATCAGTGATAGAGAACGTATGTCGAGTTTACTCCCTATCAGTGATAGAGAACGTATGTCGAGTTTATCCCTATCAGTGATAGAGAACGTATGTCGAGTTTACTCCCTATCAGTGATAGAGAACGTATGTCGAGGTAGGCGTGTACGGTGGGAGGCCTATATAAGCAACCGGTGTTTAGTGAACCGTCAGATCGCCTGGAGACGCCATCATAATACAAACAGACCAGATTGTCTGTTTGTT",,,4.88E+06 RLU,36.3,1345,40.3,1915,53.4,3.23
"TREadvCuO32: Tet-On (TREadv) and Cumate complex response element, CuO 32 bp behind the TATA box (SEQ ID NO: 29) (nucleic acid, TREadvCuO32 response element sequence) DNA: TCCCTATCAGTGATAGAGAACGTATGTCGAGTTTACTCCCTATCAGTGATAGAGAACGATGTCGAGTTTACTCCCTATCAGTGATAGAGAACGTATGTCGAGTTTACTCCCTATCAGTGATAGAGAACGTATGTCGAGTTTACTCCCTATCAGTGATAGAGAACGTATGTCGAGTTTATCCCTATCAGTGATAGAGAACGTATGTCGAGTTTACTCCCTATCAGTGATAGAGAACGTATGTCGAGGTAGGCGTGTACGGTGGGAGGCCTATATAAGCAACCGGTGTTTAGTGAACCGTCAGATCTACAAACAGACCAGATTGTCTGTTTGTT",,,3.26+06 RLU,,,,,37.8,4.97
